Seven molecules from US20110195900A1, “PEPTIDIC PTH RECEPTOR AGONISTS” (FERRING B.V., priority 2008, published 2011) can be followed below.

Non-standard residues stand in square brackets, D forms with d. No end group written: not given here. 1Nal = N[C@@H](Cc1cccc2ccccc12)C(=O)O; 2Nal = N[C@@H](Cc1ccc2ccccc2c1)C(=O)O; β3hI = CC[C@H](C)[C@H](N)CC(=O)O; Nle = CCCC[C@H](N)C(=O)O; Aib = CC(C)(N)C(=O)O; βAla = NCCC(=O)O

Assay [1] deals with human parathyroid hormone receptor 2 (human, UniProt P49190). Nature of the assay: cell-based or functional assay.
Assay [2] has as its target human parathyroid hormone receptor 1 (human, UniProt Q03431). The experiment in a line: cell-based or functional assay.

B1: [Nle^8,18, β-Ala^19, 1-Nal^23, Leu^27] hPTH-(1-34)-NH2 (peptide)
peptide: SVSEIQL[Nle]HNLGKHLNS[Nle][βAla]RVE[1Nal]LRKLLQDVHNF-NH2
modifications: N-terminus assumed
SMILES: CCCC[C@H](NC(=O)[C@H](CO)NC(=O)[C@H](CC(N)=O)NC(=O)[C@H](CC(C)C)NC(=O)[C@H](Cc1c[nH]cn1)NC(=O)[C@H](CCCCN)NC(=O)CNC(=O)[C@H](CC(C)C)NC(=O)[C@H](CC(N)=O)NC(=O)[C@H](Cc1c[nH]cn1)NC(=O)[C@H](CCCC)NC(=O)[C@H](CC(C)C)NC(=O)[C@H](CCC(N)=O)NC(=O)[C@@H](NC(=O)[C@H](CCC(=O)O)NC(=O)[C@H](CO)NC(=O)[C@@H](NC(=O)[C@@H](N)CO)C(C)C)[C@@H](C)CC)C(=O)NCCC(=O)N[C@@H](CCCNC(=N)N)C(=O)N[C@H](C(=O)N[C@@H](CCC(=O)O)C(=O)N[C@@H](Cc1cccc2ccccc12)C(=O)N[C@@H](CC(C)C)C(=O)N[C@@H](CCCNC(=N)N)C(=O)N[C@@H](CCCCN)C(=O)N[C@@H](CC(C)C)C(=O)N[C@@H](CC(C)C)C(=O)N[C@@H](CCC(N)=O)C(=O)N[C@@H](CC(=O)O)C(=O)N[C@H](C(=O)N[C@@H](Cc1c[nH]cn1)C(=O)N[C@@H](CC(N)=O)C(=O)N[C@@H](Cc1ccccc1)C(N)=O)C(C)C)C(C)C
For the molecule B1, the “hPTHR-2 EC50 (nM), luciferase reporter gene assay” value (“hPTHR-2 EC50 (nM)” below) in assay [1] turned out to be 18 nM. In assay [2], the “hPTHR-1 EC50 (nM), CRE-luciferase reporter gene assay” value (“hPTHR-1 EC50 (nM)” below) was 0.26 nM.
For [Aib]VSEIQL[Nle]HSLGKHLK[βAla][Nle]ERVE[1Nal]LRKLLQRVHEE-NH2 the same measures were 7 nM and 0.03 nM.
Taken in the same sequence, the figures for SVSEIQL[Nle]HNLGKHLNS[β3hI]ERVE[1Nal]LRKLLQDV-OH [[Nle^8, β-hIle^18, 1-Nal^23, Leu^27] hPTH (1-31)-OH] were 76 nM and 0.09 nM.

B2: [Ala^1, Nle^8,18, β-Ala^17, 2-Nal^23] hPTH (1-34)-NH2 (peptide)
peptide: AVSEIQL[Nle]HNLGKHLN[βAla][Nle]ERVE[2Nal]LRKKLQDVHNF-NH2
modifications: N-terminus assumed
SMILES: CCCC[C@H](NC(=O)CCNC(=O)[C@H](CC(N)=O)NC(=O)[C@H](CC(C)C)NC(=O)[C@H](Cc1c[nH]cn1)NC(=O)[C@H](CCCCN)NC(=O)CNC(=O)[C@H](CC(C)C)NC(=O)[C@H](CC(N)=O)NC(=O)[C@H](Cc1c[nH]cn1)NC(=O)[C@H](CCCC)NC(=O)[C@H](CC(C)C)NC(=O)[C@H](CCC(N)=O)NC(=O)[C@@H](NC(=O)[C@H](CCC(=O)O)NC(=O)[C@H](CO)NC(=O)[C@@H](NC(=O)[C@H](C)N)C(C)C)[C@@H](C)CC)C(=O)N[C@@H](CCC(=O)O)C(=O)N[C@@H](CCCNC(=N)N)C(=O)N[C@H](C(=O)N[C@@H](CCC(=O)O)C(=O)N[C@@H](Cc1ccc2ccccc2c1)C(=O)N[C@@H](CC(C)C)C(=O)N[C@@H](CCCNC(=N)N)C(=O)N[C@@H](CCCCN)C(=O)N[C@@H](CCCCN)C(=O)N[C@@H](CC(C)C)C(=O)N[C@@H](CCC(N)=O)C(=O)N[C@@H](CC(=O)O)C(=O)N[C@H](C(=O)N[C@@H](Cc1c[nH]cn1)C(=O)N[C@@H](CC(N)=O)C(=O)N[C@@H](Cc1ccccc1)C(N)=O)C(C)C)C(C)C
As for B2, in assay [1], the “hPTHR-2 EC50 (nM)” value came out at 95 nM. In assay [2], the “hPTHR-1 EC50 (nM)” value is 0.22 nM.

B3: [Nle^8, β-hIle^18, 1-Nal^23] hPTH (1-34)-OH (peptide)
peptide: SVSEIQL[Nle]HNLGKHLNS[β3hI]ERVE[1Nal]LRKKLQDVHNF-OH
modifications: N-terminus assumed
SMILES: CCCC[C@H](NC(=O)[C@H](CC(C)C)NC(=O)[C@H](CCC(N)=O)NC(=O)[C@@H](NC(=O)[C@H](CCC(=O)O)NC(=O)[C@H](CO)NC(=O)[C@@H](NC(=O)[C@@H](N)CO)C(C)C)[C@@H](C)CC)C(=O)N[C@@H](Cc1c[nH]cn1)C(=O)N[C@@H](CC(N)=O)C(=O)N[C@@H](CC(C)C)C(=O)NCC(=O)N[C@@H](CCCCN)C(=O)N[C@@H](Cc1c[nH]cn1)C(=O)N[C@@H](CC(C)C)C(=O)N[C@@H](CC(N)=O)C(=O)N[C@@H](CO)C(=O)N[C@H](CC(=O)N[C@@H](CCC(=O)O)C(=O)N[C@@H](CCCNC(=N)N)C(=O)N[C@H](C(=O)N[C@@H](CCC(=O)O)C(=O)N[C@@H](Cc1cccc2ccccc12)C(=O)N[C@@H](CC(C)C)C(=O)N[C@@H](CCCNC(=N)N)C(=O)N[C@@H](CCCCN)C(=O)N[C@@H](CCCCN)C(=O)N[C@@H](CC(C)C)C(=O)N[C@@H](CCC(N)=O)C(=O)N[C@@H](CC(=O)O)C(=O)N[C@H](C(=O)N[C@@H](Cc1c[nH]cn1)C(=O)N[C@@H](CC(N)=O)C(=O)N[C@@H](Cc1ccccc1)C(=O)O)C(C)C)C(C)C)[C@@H](C)CC
Turning to B3, the “hPTHR-2 EC50 (nM)” value in assay [1] was determined as 26 nM. The “hPTHR-1 EC50 (nM)” value in assay [2] was 0.21 nM.
Taken in the same sequence, the figures for SVSEIQL[Nle]HNLGKHLNS[β3hI]ERVE[1Nal]LRKLLQDVHNF-OH [[Nle^8, β-hIle^18, 1-Nal^23, Leu^27] hPTH (1-34)-OH] were 23 nM and 0.14 nM.

B4: [Nle^8,18, β-Ala^19, 1-Nal^23] hPTH (1-34)-NH2 (peptide)
peptide: SVSEIQL[Nle]HNLGKHLNS[Nle][βAla]RVE[1Nal]LRKKLQDVHNF-NH2
modifications: N-terminus assumed
SMILES: CCCC[C@H](NC(=O)[C@H](CO)NC(=O)[C@H](CC(N)=O)NC(=O)[C@H](CC(C)C)NC(=O)[C@H](Cc1c[nH]cn1)NC(=O)[C@H](CCCCN)NC(=O)CNC(=O)[C@H](CC(C)C)NC(=O)[C@H](CC(N)=O)NC(=O)[C@H](Cc1c[nH]cn1)NC(=O)[C@H](CCCC)NC(=O)[C@H](CC(C)C)NC(=O)[C@H](CCC(N)=O)NC(=O)[C@@H](NC(=O)[C@H](CCC(=O)O)NC(=O)[C@H](CO)NC(=O)[C@@H](NC(=O)[C@@H](N)CO)C(C)C)[C@@H](C)CC)C(=O)NCCC(=O)N[C@@H](CCCNC(=N)N)C(=O)N[C@H](C(=O)N[C@@H](CCC(=O)O)C(=O)N[C@@H](Cc1cccc2ccccc12)C(=O)N[C@@H](CC(C)C)C(=O)N[C@@H](CCCNC(=N)N)C(=O)N[C@@H](CCCCN)C(=O)N[C@@H](CCCCN)C(=O)N[C@@H](CC(C)C)C(=O)N[C@@H](CCC(N)=O)C(=O)N[C@@H](CC(=O)O)C(=O)N[C@H](C(=O)N[C@@H](Cc1c[nH]cn1)C(=O)N[C@@H](CC(N)=O)C(=O)N[C@@H](Cc1ccccc1)C(N)=O)C(C)C)C(C)C
In the case of B4, the “hPTHR-2 EC50 (nM)” value in assay [1] was 11 nM. Moreover, the “hPTHR-1 EC50 (nM)” value in assay [2] amounted to 0.21 nM.
